In PMC12148503, “Molecular Basis of Interchain Disulfide Bond Formation in BMP-9 and BMP-10” (Journal of molecular biology, 2025):

B1: Pro-(fr)-TGF-β2 (natural protein, human, UniProt P61812-1 19-414, looked up)
chain: LSLSTSSTLDMDQFMRKRIEAIRGQILSKLKLTSPPEDYPEPEEVPPEVISIYNSTRDLLQEKASRRAAACERERSDEEYYAKEVYKIDMPPFFPSENAIPPTFYRPYFRIVRFDVSAMEKNASNLVKAEFRVFRLQNPKARVAEQRIELYQILKSKDLTSPTQRYIDSKVVKTRAEGEWLSFDVTDAVHEWLHHKDRNLGFKISLHCPCCTFVPSNNYIIPNKSEELEARFAGIDGTSTYTSGDQKTIKSTRKKNSGKTPHLLLMLLPSYRLESQQTNRRKKRALDAAYCFRNVQDNCCLRPLYIDFKRDLGWKWIHEPKGYNANFCAGACPYLWSSDTQHSRVLSLYNTINPEASASPCCVSQDLEPLTILYYIGKTPKIEQLSNMIVKSCKCS
notes: Human proTGF-β2 residues 19-414; Behind the mouse Ig signal peptide and the 8xHis tag, no processing site after the tag; Furin processing incomplete; also called Pro-TGF-β2; source: expi293 (suspension HEK293), secreted; purified from conditioned medium by the histidine tag (IMAC); not shown: 8xHis, N-terminal, kept
B2: Pro-(fr)-Act-A (natural protein, human, UniProt P08476 27-426, looked up)
chain: EGHSAAPDCPSCALAALPKDVPNSQPEMVEAVKKHILNMLHLKKRPDVTQPVPKAALLNAIRKLHVGKVGENGYVEIEDDIGRRAEMNELMEQTSEIITFAESGTARKTLHFEISKEGSDLSVVERAEVWLFLKVPKANRTRTKVTIRLFQQQKHPQGSLDTGEEAEEVGLKGERSELLLSEKVVDARKSTWHVFPVSSSIQRLLDQGKSSLDVRIACEQCQESGASLVLLGKKKKKEEEGEGKKKGGGEGGAGADEEKEQSHRPFLMLQARQSEDHPHRRRRRGLECDGKVNICCKKQFFVSFKDIGWNDWIIAPSGYHANYCEGECPSHIAGTSGSSLSFHSTVINHYRMRGHSPFANLKSCCVPTKLRPMSMLYYDDGQNIIKKDIQNMIVEECGCS
notes: Human proINHBA residues 27-426; The results call it N-terminally histidine-tagged and purified by that tag; the methods say 'with no tag or processing site'; Furin processing incomplete; also called Pro-Activin-A; Pro-Act-A; source: expi293 (suspension HEK293), secreted; purified from conditioned medium by the histidine tag (IMAC); not shown: His tag, N-terminal, kept
B3: Pro-(fr)-BMP-10 (natural protein, human, UniProt O95393 22-424, looked up)
chain: SPIMNLEQSPLEEDMSLFGDVFSEQDGVDFNTLLQSMKDEFLKTLNLSDIPTQDSAKVDPPEYMLELYNKFATDRTSMPSANIIRSFKNEDLFSQPVSFNGLRKYPLLFNVSIPHHEEVIMAELRLYTLVQRDRMIYDGVDRKITIFEVLESKGDNEGERNMLVLVSGEIYGTNSEWETFDVTDAIRRWQKSGSSTHQLEVHIESKHDEAEDASSGRLEIDTSAQNKHNPLLIVFSDDQSSDKERKEELNEMISHEQLPELDNLGLDSFSSGPGEEALLQMRSNIIYDSTARIRRNAKGNYCKRTPLYIDFKEIGWDSWIIAPPGYEAYECRGVCNYPLAEHLTPTKHAIIQALVHLKNSQKASKACCVPTKLEPISILYLDKGVVTYKFKYEGMAVSECGCR
notes: Human proBMP10 residues 22-424 with the natural furin site; Partially processed by furin: the sample holds unprocessed pro-protein, prodomain and growth factor (12 and 24 kDa); also called Pro-BMP-10 with unmodified furin processing site; wild-type BMP-10; source: expi293 (suspension HEK293), secreted; purified from conditioned medium by IMAC; not shown: 8xHis, N-terminal, kept
B4: Pro-(fr)-BMP-9 (natural protein, human, UniProt Q9UK05 23-429, looked up)
chain: KPLQSWGRGSAGGNAHSPLGVPGGGLPEHTFNLKMFLENVKVDFLRSLNLSGVPSQDKTRVEPPQYMIDLYNRYTSDKSTTPASNIVRSFSMEDAISITATEDFPFQKHILLFNISIPRHEQITRAELRLYVSCQNHVDPSHDLKGSVVIYDVLDGTDAWDSATETKTFLVSQDIQDEGWETLEVSSAVKRWVRSDSTKSKNKLEVTVESHRKGCDTLDISVPPGSRNLPFFVVFSNDHSSGTKETRLELREMISHEQESVLKKLSKDGSTEAGESSHEEDTDGHVAAGSTLARRKRSSGAGSHCQKTSLRVNFEDIGWDSWIIAPKEYEAYECKGGCFFPLADDVTPTKHAIVQTLVHLKFPTKVGKACCVPTKLSPISVLYKDDMGVPTLKYHYEGMSVAECGCR
notes: Human proBMP9 residues 23-429 with the natural furin site; Partially processed by furin: the sample holds unprocessed pro-protein, prodomain and growth factor (12 and 24 kDa); also called Pro-BMP-9 with unmodified furin processing site; wild-type BMP-9; source: expi293 (suspension HEK293), secreted; purified from conditioned medium by IMAC; not shown: 8xHis, N-terminal, kept
B5: Pro-(X)-BMP-9 G389S, K357R (natural protein, human, UniProt Q9UK05 23-429, looked up)
chain: KPLQSWGRGSAGGNAHSPLGVPGGGLPEHTFNLKMFLENVKVDFLRSLNLSGVPSQDKTRVEPPQYMIDLYNRYTSDKSTTPASNIVRSFSMEDAISITATEDFPFQKHILLFNISIPRHEQITRAELRLYVSCQNHVDPSHDLKGSVVIYDVLDGTDAWDSATETKTFLVSQDIQDEGWETLEVSSAVKRWVRSDSTKSKNKLEVTVESHRKGCDTLDISVPPGSRNLPFFVVFSNDHSSGTKETRLELREMISHEQESVLKKLSKDGSTEAGESSHEEDTDGHVAAGSTLAIEGRSSGAGSHCQKTSLRVNFEDIGWDSWIIAPKEYEAYECRGGCFFPLADDVTPTKHAIVQTLVHLKFPTKVSKACCVPTKLSPISVLYKDDMGVPTLKYHYEGMSVAECGCR
notes: Human proBMP9 residues 23-429; mutant based on Pro-(X)-BMP-9; also called G389S, K357R BMP-9; BMP-9 double mutant; source: expi293 (suspension HEK293), secreted; purified from conditioned medium by IMAC; not shown: 8xHis, N-terminal, kept
B6: Pro-(X)-BMP-9 G389S (natural protein, human, UniProt Q9UK05 23-429, looked up)
chain: KPLQSWGRGSAGGNAHSPLGVPGGGLPEHTFNLKMFLENVKVDFLRSLNLSGVPSQDKTRVEPPQYMIDLYNRYTSDKSTTPASNIVRSFSMEDAISITATEDFPFQKHILLFNISIPRHEQITRAELRLYVSCQNHVDPSHDLKGSVVIYDVLDGTDAWDSATETKTFLVSQDIQDEGWETLEVSSAVKRWVRSDSTKSKNKLEVTVESHRKGCDTLDISVPPGSRNLPFFVVFSNDHSSGTKETRLELREMISHEQESVLKKLSKDGSTEAGESSHEEDTDGHVAAGSTLAIEGRSSGAGSHCQKTSLRVNFEDIGWDSWIIAPKEYEAYECKGGCFFPLADDVTPTKHAIVQTLVHLKFPTKVSKACCVPTKLSPISVLYKDDMGVPTLKYHYEGMSVAECGCR
notes: Human proBMP9 residues 23-429; mutant based on Pro-(X)-BMP-9; also called G389S BMP-9; source: expi293 (suspension HEK293), secreted; purified from conditioned medium by IMAC; not shown: 8xHis, N-terminal, kept

Biological target: the molecule itself
Assay: non-reducing SDS-PAGE with densitometry; IMAC-purified pro-proteins from expi293 conditioned medium, non-reduced against reduced; bands of disulfide-linked dimer and monomer

Binding result, binds:
B1
B2
B3
B4
B5
B6
